For 7 variants, sfGFP reporter fluorescence results are on record in the supplement of paper PMC12783771.

± gives the standard deviation of the averaged measurements.

To fix the notation:
B1: library; a variant is named by its letters at X, in order (parent)
chain: MNIQIGELAKRTACPVVTIRFYEQEGLLPPPGRSRGNFRLYGEEHVERLQFIRHCRSLDMPLSXVRTLLSYRKRPDQDCGEVXMLLDEHXRQVESRIGALLELXHXLVELREACSGARPAQSCGILQGLSDCVCDTRGTTAHXSD

Data set [1] covers variants of B1. As to the kind of experiment: sfGFP reporter fluorescence (15 h) (µM FITC); higher = higher leak. Conditions: library round: Round 3b; ligand: none. Here is the method: (§1)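 Cell-free biosensing: 1 µL Echo-assembled CFE reactions with linear PbrR variant templates (5 nM) and pPbrR-sfGFP reporter, with 1 µM Pb, 30 µM Zn or no ligand; endpoint sfGFP fluorescence after 15 h at 30 °C calibrated as µM FITC. Round 3b rational combinatorial PbrR mutants; 3 biological replicates.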

Variants of B1 are the subject of data set [2]. Description: sfGFP reporter fluorescence (15 h) (µM FITC); higher = stronger transcriptional activation. Particulars: library round: Round 3b. As for the experimental part: as §1

For the variant MNIQIGELAKRTACPVVTIRFYEQEGLLPPPGRSRGNFRLYGEEHVERLQFIRHCRSLDMPLSKVRTLLSYRKRPDQDCGEVFMLLDEHARQVESRIGALLELVHALVELREACSGARPAQSCGILQGLSDCVCDTRGTTAHTSD [KFAVAT], the sfGFP reporter fluorescence turned out to be 0.0465 ± 0.0014 in data set [1], 0.356 ± 0.02 in data set [2] (ligand: 1 µM Pb) and 0.057 ± 0.0017 in data set [2] (ligand: 30 µM Zn).

In the case of MNIQIGELAKRTACPVVTIRFYEQEGLLPPPGRSRGNFRLYGEEHVERLQFIRHCRSLDMPLSDVRTLLSYRKRPDQDCGEVFMLLDEHARQVESRIGALLELVHELVELREACSGARPAQSCGILQGLSDCVCDTRGTTAHRSD [DFAVER], the sfGFP reporter fluorescence in data set [1] amounted to 0.0402 ± 0.0024; in data set [2] (ligand: 1 µM Pb), 0.0506 ± 0.0017; in data set [2] (ligand: 30 µM Zn) it was 0.0474 ± 0.0015.

Take MNIQIGELAKRTACPVVTIRFYEQEGLLPPPGRSRGNFRLYGEEHVERLQFIRHCRSLDMPLSDVRTLLSYRKRPDQDCGEVFMLLDEHARQVESRIGALLELVHELVELREACSGARPAQSCGILQGLSDCVCDTRGTTAHPSD [DFAVEP]: the values for the sfGFP reporter fluorescence in data set [1], in data set [2] (ligand: 1 µM Pb) and in data set [2] (ligand: 30 µM Zn) were 0.0418 ± 0.0019, 0.0531 ± 0.0031 and 0.0466 ± 0.0044, respectively.

Regarding MNIQIGELAKRTACPVVTIRFYEQEGLLPPPGRSRGNFRLYGEEHVERLQFIRHCRSLDMPLSDVRTLLSYRKRPDQDCGEVFMLLDEHARQVESRIGALLELVHELVELREACSGARPAQSCGILQGLSDCVCDTRGTTAHTSD [DFAVET], the sfGFP reporter fluorescence in data set [1] turned out to be 0.0447 ± 0.00067; in data set [2] (ligand: 1 µM Pb), 0.051 ± 0.0039; in data set [2] (ligand: 30 µM Zn), 0.0469 ± 0.00097.

On to MNIQIGELAKRTACPVVTIRFYEQEGLLPPPGRSRGNFRLYGEEHVERLQFIRHCRSLDMPLSKVRTLLSYRKRPDQDCGEVFMLLDEHARQVESRIGALLELVHELVELREACSGARPAQSCGILQGLSDCVCDTRGTTAHTSD [KFAVET], for which the sfGFP reporter fluorescence turned out to be 0.0489 ± 0.0017 in data set [1], 0.41 ± 0.071 in data set [2] (ligand: 1 µM Pb) and 0.0549 ± 0.0017 in data set [2] (ligand: 30 µM Zn).

As to MNIQIGELAKRTACPVVTIRFYEQEGLLPPPGRSRGNFRLYGEEHVERLQFIRHCRSLDMPLSKVRTLLSYRKRPDQDCGEVFMLLDEHARQVESRIGALLELVHELVELREACSGARPAQSCGILQGLSDCVCDTRGTTAHRSD [KFAVER], the sfGFP reporter fluorescence was found to be 0.0512 ± 0.0022 in data set [1], 0.51 ± 0.029 in data set [2] (ligand: 1 µM Pb) and 0.056 ± 0.0049 in data set [2] (ligand: 30 µM Zn).

Consider MNIQIGELAKRTACPVVTIRFYEQEGLLPPPGRSRGNFRLYGEEHVERLQFIRHCRSLDMPLSKVRTLLSYRKRPDQDCGEVFMLLDEHARQVESRIGALLELVHELVELREACSGARPAQSCGILQGLSDCVCDTRGTTAHPSD [KFAVEP], for which the figures for the sfGFP reporter fluorescence in data set [1], in data set [2] (ligand: 1 µM Pb) and in data set [2] (ligand: 30 µM Zn) were 0.0452 ± 0.0037, 0.533 ± 0.03 and 0.0557 ± 0.0048, respectively.
